As a reminder, the Kd is the concentration at which binding is half-saturated. The low end stands for higher affinity, the high end for lower affinity. Broadly, the koff is the first-order rate constant of dissociation. Low values mean a long-lived complex, high ones a short-lived complex. One may read the kon as the rate constant with which the complex forms. Lower therefore signals slower complex formation.

In experiment [1] the target is T1, Mouse ANGPTL4(26-410)-FLAG-His6-Avi (mouse, UniProt Q9Z1P8 24-410, biotin on the C-terminal Avi tag in the immobilised form).
T1 sequence: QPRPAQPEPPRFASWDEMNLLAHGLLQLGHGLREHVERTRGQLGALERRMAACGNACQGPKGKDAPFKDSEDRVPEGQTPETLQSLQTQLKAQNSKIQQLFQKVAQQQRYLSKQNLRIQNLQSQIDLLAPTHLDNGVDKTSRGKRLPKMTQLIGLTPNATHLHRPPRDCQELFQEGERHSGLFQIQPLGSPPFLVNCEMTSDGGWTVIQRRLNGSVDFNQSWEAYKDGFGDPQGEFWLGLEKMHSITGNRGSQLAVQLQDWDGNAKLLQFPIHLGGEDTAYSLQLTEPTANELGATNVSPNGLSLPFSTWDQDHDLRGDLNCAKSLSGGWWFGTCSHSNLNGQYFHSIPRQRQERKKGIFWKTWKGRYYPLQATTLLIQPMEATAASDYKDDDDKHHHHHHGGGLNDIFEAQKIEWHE
The experiment can be described thus: SET assay (solution equilibrium titration, MSD), IgG.

For experiment [2], the target named is T2, Human ANGPTL4(26-406)-FLAG-His6-Avi (human, UniProt Q9BY76 24-406, biotin on the C-terminal Avi tag in the biotinylated preparations (immobilised form in SET, ELISA and Octet)).
T2 construct: also called full-length human ANGPTL4; hANGPTL4
T2 sequence: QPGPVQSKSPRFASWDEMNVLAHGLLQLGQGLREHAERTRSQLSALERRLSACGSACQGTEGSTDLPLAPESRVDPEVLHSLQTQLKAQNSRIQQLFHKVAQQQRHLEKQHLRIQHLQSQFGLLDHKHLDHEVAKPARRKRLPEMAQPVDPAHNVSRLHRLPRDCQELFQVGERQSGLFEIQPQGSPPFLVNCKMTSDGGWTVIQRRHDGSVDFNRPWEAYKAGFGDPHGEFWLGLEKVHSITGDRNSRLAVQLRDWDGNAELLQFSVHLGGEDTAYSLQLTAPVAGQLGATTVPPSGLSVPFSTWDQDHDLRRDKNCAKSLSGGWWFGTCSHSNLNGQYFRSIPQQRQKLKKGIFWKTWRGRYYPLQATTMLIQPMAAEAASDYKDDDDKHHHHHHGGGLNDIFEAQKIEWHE
The experiment in a line: ForteBio Octet, biotinylated antigen on streptavidin sensor, antibody in solution. As for the experimental part:
Dissociation constants (KD) were determined for selected antibodies of the invention by using an Octet (ForteBio) kinetic binding assay. ForteBio 10× Kinetics Buffer (ForteBio, catalog number 18-5032) was diluted 10-fold with DPBS (Life Technologies, catalog number 14190-136), and the resulting solution was added (0.2 ml per well) to a 96-well plate (Greiner, catalog number 65520). Streptavidin sensors (ForteBio, catalog number 18-5020) were immersed in the solution and equilibrated for at least 10 min at room temperature. In a second 96-well plate (Greiner, catalog number 65520), sensors were washed in 1× Kinetics buffer, and then immersed in 200 ul of 25 nM biotinylated human ANGPTL4 or a biotinylated reference protein (for background substraction) for 1000 sec […] at room temperature. The sensors were then washed in 1× Kinetics buffer for 120 sec, and immersed in 200 ul of ANGPTL4 antibody diluted in 1× Kinetics buffer at various concentrations (serial 2-fold dilutions ranging from 25 nM to 0.4 nM), and antibody association was monitored for 480 seconds. The sensors were then transferred to a well containing 200 ul 1× Kinetics buffer, and antibody dissociation was monitored for 1200 seconds. Background-corrected association and dissociation curves were globally fitted by Octet Software (ForteBio) to generate association (kₒₙ) and dissociation (koff) rate constants, which in turn were used to calculate equilibrium dissociation constants (KD).
For orientation: In BLI a coated tip is dipped into the sample, and binding shifts an interference pattern.

Experiment [3] has as its target T3, ANGPTL4-derived peptide P29 (human).
T3 peptide: KAQNSRIQQLFHKVA
The experiment can be described thus: peptide array, immobilised linear 15-mers. As for the experimental part:
(§1) The ability of selected antibodies of invention, namely MOR022765 and MOR022770, to bind to linear 15-amino-acid peptides derived from the N-terminal coiled coil domain of human ANGPTL4 was tested. The peptides were immobilized on a glass surface, and the ability of MOR022765 and MOR022770 to bind to the immobilized peptides was evaluated using experimental methods optimized for linear peptide epitope mapping at JPT Peptide Technologies (Berlin, Germany).

The target in experiment [4] is T4, ANGPTL4-derived peptide P42 (human).
T4 peptide: HKHLDHEVAKPARRK
The experiment in a line: peptide array, immobilised linear 15-mers. As for the experimental part: as §1

Experiment [5] concerns the target T5, ANGPTL4-derived peptide P35 (human).
T5 peptide: RHLEKQHLRIQHLQS
The experiment can be described thus: peptide array, immobilised linear 15-mers. As for the experimental part:
as §1

Experiment [6] addresses T6, ANGPTL4-derived peptide P15 (human).
T6 construct: printed with S where human ANGPTL4 has C
T6 peptide: ALERRLSASGSASQG
The experiment can be described thus: peptide array, immobilised linear 15-mers. As for the experimental part: as §1

The target in experiment [7] is T7, ANGPTL4-derived peptide P13 (human).
T7 construct: printed with S where human ANGPTL4 has C
T7 peptide: TRSQLSALERRLSAS
The experiment in a line: peptide array, immobilised linear 15-mers. The procedure: as §1

Experiment [8] concerns the target T8, ANGPTL4-derived peptide P17 (human).
T8 construct: printed with S where human ANGPTL4 has C
T8 peptide: SASGSASQGTEGSTD
The experiment can be described thus: peptide array, immobilised linear 15-mers. As for the experimental part: as §1

Experiment [9] has as its target T9, ANGPTL4-derived peptide P23 (human).
T9 peptide: APESRVDPEVLHSLQ
The experiment can be described thus: peptide array, immobilised linear 15-mers. The procedure:
as §1

For experiment [10], the target named is T10, ANGPTL4-derived peptide P38 (human).
T10 peptide: IQHLQSQFGLLDHKH
The experiment can be described thus: peptide array, immobilised linear 15-mers. As for the experimental part:
as §1

B1: MOR021792 (antibody, human IgG1, lambda, V domains shown)
VH: QVQLLESGGGLVQPGGSLRLSCAASGFTFSDYAMDWVRQAPGKGLEWVSKISYDGSYTYYADSVKGRFTISRDNSKNTLYLQMNSLRAEDTAVYYCARPSMSYYIIPAGFDVWGQGTLVTVSS
VL: DIELTQPPSVSVSPGQTASITCSGDALGVKRASWYQQKPGQAPVLVIYKDNNRPSGIPERFSGSNSGNTATLTISGTQAEDEADYYCSVRTWSMNLYVFGGGTKLTVLG
B1 returned a Kd in experiment [1] of 0.005 nM. For the same molecule, in experiment [2], the Kd came out at 0.184 nM, the koff stood at 6.5e-05 s⁻¹ and the kon was found to be 250000 M⁻¹ s⁻¹.

B2: MOR021798 (antibody, human IgG1, lambda, V domains shown)
VH: QVQLLESGGGLVQPGGSLRLSCAASGFTFSDYALHWVRQAPGKGLEWVSRISYMGSSTYYADSVKGRFTISRDNSKNTLYLQMNSLRAEDTAVYYCAREHYYSSPMGGVAVDNWGQGTLVTVSS
VL: DIVLTQPPSVSGAPGQRVTISCSGSSSNIGYNTVSWYQQLPGTAPKLLIYSNNIRPSGVPDRFSGSKSGTSASLAITGLQAEDEADYYCSSWDFLIKSLVFGGGTKLTVLG
notes: human IgG1
In the case of B2, binding in [1] was characterised by a dissociation constant (Kd) of 0.517 nM. Moreover, in [2], the Kd stood at 0.444 nM, the koff worked out at 9.9e-05 s⁻¹ and the kon was found to be 220000 M⁻¹ s⁻¹.

B3: MOR022765 (antibody, human IgG1, lambda, V domains shown)
VH: EVQLVQSGAEVKKPGESLKISCKGSGYSFSTYWISWVRQMPGKGLEWMGIIDPSSSDTRYSPSFQGQVTISADKSISTAYLQWSSLKASDTAMYYCARVYGYVYMDVWGQGTLVTVSS
VL: SYELTQPLSVSVALGQTARITCSGDNLGKKYAYWYQQKPGQAPVLVIYDKTKRPSGIPERFSGSNSGNTATLTISRAQAGDEADYYCASYDWYSSSYVFGGGTKLTVLG
notes: human IgG1
B3: the binding result in experiment [3], in experiment [4], in experiment [5], in experiment [6], in experiment [7] and in experiment [8] was “no binding” in each case. Moreover, the binding result in experiment [9] and in experiment [10] was “no binding” each time.

These data come from US20160108110A1 (Novartis, published 2016).
